± gives the standard deviation of the averaged measurements.
Assay: total protein half-life in vivo (active degradation + dilution); higher = more stable protein
[1] = E. coli NCM3722 delta-clpP delta-lon delta-hslV, growth: N-lim chemostat, doubling time 6 h
[2] = E. coli NCM3722 delta-clpP, growth: N-lim chemostat, doubling time 6 h
[3] = E. coli NCM3722 delta-smpB, growth: N-lim chemostat, doubling time 6 h
[4] = wild type E. coli NCM3722, growth: C-lim chemostat, doubling time 6 h
[5] = wild type E. coli NCM3722, growth: C-lim chemostat, doubling time 12 h
[6] = wild type E. coli NCM3722, growth: N-lim chemostat, doubling time 6 h
[7] = wild type E. coli NCM3722, growth: N-lim chemostat, doubling time 12 h
[8] = wild type E. coli NCM3722, growth: P-lim chemostat, doubling time 6 h
[9] = wild type E. coli NCM3722, growth: P-lim chemostat, doubling time 12 h
[10] = E. coli NCM3722 delta-hslV, growth: N-lim chemostat, doubling time 6 h
[11] = wild type E. coli NCM3722, growth: C-lim chemostat, doubling time 3 h
[12] = E. coli NCM3722 delta-lon, growth: N-lim chemostat, doubling time 6 h

MKIFSVRQTVLPALLVLSPVVFAADEQTMIVSAAPQVVSELDTPAAVSVVDGEEMRLATPRINLSESLTGVPGLQVQNRQNYAQDLQLSIRGFGSRSTYGIRGIRLYVDGIPATMPDGQGQTSNIDLSSVQNVEVLRGPFSALYGNASGGVMNVTTQTGQQPPTIEASSYYGSFGSWRYGLKATGATGDGTQPGDVDYTVSTTRFTTHGYRDHSGAQKNLANAKLGVRIDEASKLSLIFNSVDIKADDPGGLTKAEWKANPQQAPRAEQYDTRKTIKQTQAGLRYERSLSSRDDMSVMMYAGERETTQYQSIPMAPQLNPSHAGGVITLQRHYQGIDSRWTHRGELGVPVTFTTGLNYENMSENRKGYNNFRLNSGMPEYGQKGELRRDERNLMWNIDPYLQTQWQLSEKLSLDAGVRYSSVWFDSNDHYVTPGNGDDSGDASYHKWLPAGSLKYAMTDAWNIYLAAGRGFETPTINELSYRADGQSGMNLGLKPSTNDTIEIGSKTRIGDGLLSLALFQTDTDDEIVVDSSSGGRTTYKNAGKTRRQGAELAWDQRFAGDFRVNASWTWLDATYRSNVCNEQDCNGNRMPGIARNMGFASIGYVPEDGWYAGTEARYMGDIMADDENTAKAPSYTLVGLFTGYKYNYHNLTVDLFGRVDNLFDKEYVGSVIVNESNGRYYEPSPGRNYGVGMNIAWRFE
total protein half-life in vivo [1]: 5.463 ± 0.043 h | total protein half-life in vivo [2]: 6.48 ± 0.072 h | total protein half-life in vivo [3]: 5.98 ± 0.44 h | total protein half-life in vivo [4]: 6.21 ± 0.33 h | total protein half-life in vivo [5]: 13.6 ± 1 h | total protein half-life in vivo [6]: 6.02 ± 0.5 h | total protein half-life in vivo [7]: 12.9 ± 0.56 h | total protein half-life in vivo [8]: 5.34 ± 0.089 h | total protein half-life in vivo [9]: > 16 h

MIAIADILQAGEKLTAVAPFLAGIQNEEQYTQALELVDHLLLNDPENPLLDLVCAKITAWEESAPEFAEFNAMAQAMPGGIAVIRTLMDQYGLTLSDLPEIGSKSMVSRVLSGKRKLTLEHAKKLATRFGISPALFID
total protein half-life in vivo [1]: 4.71 h | total protein half-life in vivo [2]: 1.51 h | total protein half-life in vivo [9]: 1.85 h

MWSEYSLEVVDAVARNGSFSAAAQELHRVPSAVSYTVRQLEEWLAVPLFERRHRDVELTAAGAWFLKEGRSVVKKMQITRQQCQQIANGWRGQLAIAVDNIVRPERTRQMIVDFYRHFDDVELLVFQEVFNGVWDALSDGRVELAIGATRAIPVGGRYAFRDMGMLSWSCVVASHHPLALMDGPFSDDTLRNWPSLVREDTSRTLPKRITWLLDNQKRVVVPDWESSATCISAGLCIGMVPTHFAKPWLNEGKWVALELENPFPDSACCLTWQQNDMSPALTWLLEYLGDSETLNKEWLREPEETPATGD [P0ACR2]
total protein half-life in vivo [1]: 5.69 ± 0.2 h | total protein half-life in vivo [2]: 5.02 ± 0.17 h | total protein half-life in vivo [10]: 4.85 ± 1.3 h | total protein half-life in vivo [3]: 4.6 ± 0.3 h | total protein half-life in vivo [11]: 2.594 ± 0.0057 h | total protein half-life in vivo [4]: > 8 h | total protein half-life in vivo [5]: 10.5 ± 0.11 h | total protein half-life in vivo [6]: 4.8 ± 0.11 h | total protein half-life in vivo [7]: 8.76 ± 0.09 h | total protein half-life in vivo [8]: 5.31 ± 0.39 h | total protein half-life in vivo [9]: 8.51 ± 0.64 h

MLYDKSLERDNCGFGLIAHIEGEPSHKVVRTAIHALARMQHRGAILADGKTGDGCGLLLQKPDRFFRIVAQERGWRLAKNYAVGMLFLNKDPELAAAARRIVEEELQRETLSIVGWRDVPTNEGVLGEIALSSLPRIEQIFVNAPAGWRPRDMERRLFIARRRIEKRLEADKDFYVCSLSNLVNIYKGLCMPTDLPRFYLDLADLRLESAICLFHQRFSTNTVPRWPLAQPFRYLAHNGEINTITGNRQWARARTYKFQTPLIPDLHDAAPFVNETGSDSSSMDNMLELLLAGGMDIIRAMRLLVPPAWQNNPDMDPELRAFFDFNSMHMEPWDGPAGIVMSDGRFAACNLDRNGLRPARYVITKDKLITCASEVGIWDYQPDEVVEKGRVGPGELMVIDTRSGRILHSAETDDDLKSRHPYKEWMEKNVRRLVPFEDLPDEEVGSRELDDDTLASYQKQFNYSAEELDSVIRVLGENGQEAVGSMGDDTPFAVLSSQPRIIYDYFRQQFAQVTNPPIDPLREAHVMSLATSIGREMNVFCEAEGQAHRLSFKSPILLYSDFKQLTTMKEEHYRADTLDITFDVTKTTLEATVKELCDKAEKMVRSGTVLLVLSDRNIAKDRLPVPAPMAVGAIQTRLVDQSLRCDANIIVETASARDPHHFAVLLGFGATAIYPYLAYETLGRLVDTHAIAKDYRTVMLNYRNGINKGLYKIMSKMGISTIASYRCSKLFEAVGLHDDVVGLCFQGAVSRIGGASFEDFQQDLLNLSKRAWLARKPISQGGLLKYVHGGEYHAYNPDVVRTLQQAVQSGEYSDYQEYAKLVNERPATTLRDLLAITPGENAVNIADVEPASELFKRFDTAAMSIGALSPEAHEALAEAMNSIGGNSNSGEGGEDPARYGTNKVSRIKQVASGRFGVTPAYLVNADVIQIKVAQGAKPGEGGQLPGDKVTPYIAKLRYSVPGVTLISPPPHHDIYSIEDLAQLIFDLKQVNPKAMISVKLVSEPGVGTIATGVAKAYADLITIAGYDGGTGASPLSSVKYAGCPWELGLVETQQALVANGLRHKIRLQVDGGLKTGVDIIKAAILGAESFGFGTGPMVALGCKYLRICHLNNCATGVATQDDKLRKNHYHGLPFKVTNYFEFIARETRELMAQLGVTRLVDLIGRTDLLKELDGFTAKQQKLALSKLLETAEPHPGKALYCTENNPPFDNGLLNAQLLQQAKPFVDERQSKTFWFDIRNTDRSVGASLSGYIAQTHGDQGLAADPIKAYFNGTAGQSFGVWNAGGVELYLTGDANDYVGKGMAGGLIAIRPPVGSAFRSHEASIIGNTCLYGATGGRLYAAGRAGERFGVRNSGAITVVEGIGDNGCEYMTGGIVCILGKTGVNFGAGMTGGFAYVLDESGDFRKRVNPELVEVLSVDALAIHEEHLRGLITEHVQHTGSQRGEEILANWSTFATKFALVKPKSSDVKALLGHRSRSAAELRVQAQ
total protein half-life in vivo [1]: 6.38 ± 0.89 h | total protein half-life in vivo [2]: 6.254 ± 0.044 h | total protein half-life in vivo [10]: 4.18 ± 0.16 h | total protein half-life in vivo [12]: 4.437 ± 0.013 h | total protein half-life in vivo [3]: 4.06 ± 0.1 h | total protein half-life in vivo [11]: 2.72 ± 0.22 h | total protein half-life in vivo [4]: 4.89 ± 0.053 h | total protein half-life in vivo [5]: 8.46 ± 0.56 h | total protein half-life in vivo [6]: 3.92 ± 0.12 h | total protein half-life in vivo [7]: 6.4 ± 0.52 h | total protein half-life in vivo [8]: 5.31 ± 0.17 h | total protein half-life in vivo [9]: 8.43 ± 0.51 h

MNPAVDNEFQQWLSQINQVCGNFTGRLLTERYTGVLDTHFAKGLKLSTVTTSGVNLSRTWQEVKGSDDAWFYTVFQLSGQAIMEQDERQVQIGAGDITLLDASRPCSLYWQESSKQISLLLPRTLLEQYFPHQKPICAERLDADLPMVQLSHRLLQESMNNPALSETESEAALQAMVCLLRPVLHQRESVQPRRERQFQKVVTLIDDNIREEILRPEWIAGETGMSVRSLYRMFADKGLVVAQYIRNRRLDFCADAIRHAADDEKLAGIGFHWGFSDQSHFSTVFKQRFGMTPGEYRRKFR
total protein half-life in vivo [1]: 6.1 ± 0.083 h | total protein half-life in vivo [12]: 1.98 h | total protein half-life in vivo [11]: 0.364 ± 0.09 h | total protein half-life in vivo [4]: 0.661 ± 0.089 h | total protein half-life in vivo [5]: 0.65 h

MSNLTYLQGYPEQLLSQVRTLINEQRLGDVLAKRYPGTHDYATDKALWQYTQDLKNQFLRNAPPINKVMYDNKIHVLKNALGLHTAVSRVQGGKLKAKVEIRVATVFRNAPEPFLRMIVVHELAHLKEKEHNKAFYQLCCHMEPQYHQLEFDTRLWLTQLSLGQNKI
total protein half-life in vivo [1]: 5.45 ± 0.29 h | total protein half-life in vivo [2]: 1.98 ± 0.15 h | total protein half-life in vivo [10]: 1.16 h | total protein half-life in vivo [3]: 1.71 h | total protein half-life in vivo [11]: 3.09 h | total protein half-life in vivo [4]: 1.64 ± 0.58 h | total protein half-life in vivo [5]: 5.13 h | total protein half-life in vivo [6]: 1.78 h | total protein half-life in vivo [7]: 1.54 ± 0.21 h | total protein half-life in vivo [8]: 1.84 ± 0.49 h | total protein half-life in vivo [9]: 2.74 ± 0.62 h

MSRINKFVLTVSLLIFIMISAVACGIYTQMVKERVYSLKQSVIDTAFAVANIAEYRRSVAIDLINTLNPTEEQLLVGLRTAYADSVSPSYLYDVGPYLISSDECIQVKEFEKNYCADIMQVVKYRHVKNTGFISFDGKTFVYYLYPVTHNRSLIFLLGLERFSLLSKSLAMDSENLMFSLFKNGKPVTGDEYNAKNAIFTVSEAMEHFAYLPTGLYVFAYKKDVYLRVCTLIIFFAALVAVISGASCLYLVRRVINRGIVEKEAIINNHFERVLDGGLFFSAADVKKLYSMYNSAFLDDLTKAMGRKSFDEDLKALPEKGGYLCLFDVDKFKNINDTFGHLLGDEVLMKVVKILKSQIPVDKGKVYRFGGDEFAVIYTGGTLEELLSILKEIVHFQVGSINLSTSIGVAHSNECPTVERLKMLADERLYKSKKNGRAQISWQ
total protein half-life in vivo [3]: 5.51 ± 1.1 h | total protein half-life in vivo [4]: 5.63 ± 1.6 h | total protein half-life in vivo [6]: 6.47 ± 1.1 h | total protein half-life in vivo [8]: 6.08 ± 0.31 h | total protein half-life in vivo [9]: 13.1 ± 1.4 h

MEFSPPLQRATLIQRYKRFLADVITPDGRELTLHCPNTGAMTGCATPGDTVWYSTSDNTKRKYPHTWELTQSQSGAFICVNTLWANRLTKEAILNESISELSGYSSLKSEVKYGAERSRIDFMLQADSRPDCYIEVKSVTLAENEQGYFPDAVTERGQKHLRELMSVAAEGQRAVIFFAVLHSAITRFSPARHIDEKYAQLLSEAQQRGVEILAYKAEISAEGMALKKSLPVTL [P0A823]
total protein half-life in vivo [1]: 6.44 ± 0.13 h | total protein half-life in vivo [2]: 5.88 ± 0.28 h | total protein half-life in vivo [12]: 5.97 ± 0.26 h | total protein half-life in vivo [3]: 5.41 ± 0.73 h | total protein half-life in vivo [11]: 3.39 ± 0.092 h | total protein half-life in vivo [4]: 6.23 ± 0.38 h | total protein half-life in vivo [5]: 11.2 ± 0.24 h | total protein half-life in vivo [6]: 5.71 ± 0.11 h | total protein half-life in vivo [7]: 10.2 ± 0.88 h | total protein half-life in vivo [8]: 5.67 ± 0.24 h | total protein half-life in vivo [9]: 13.5 ± 1.4 h

From the supplement of paper PMC11246515
